Test results from patent US20260022128A1 (AbbVie / Abbott, published 2026).

B1: ADC-1 (AbA conjugated to linker drug LD1, structural formula VIII) (antibody, IgG1, V domains shown)
VH: QVQLVQSGAEVKKPGASVKVSCKASGYIFTAYTMHWVRQAPGQGLEWMGWIKPNNGLANYAQKFQGRVTMTRDTSISTAYMELSRLRSDDTAVYYCARSEITTEFDYWGQGTLVTVSS
VL: DIVMTQSPDSLAVSLGERATINCKSSESVDSYANSFLHWYQQKPGQPPKLLIYRASTRESGVPDRFSGSGSGTDFTLTISSLQAEDVAVYYCQQSKEDPLTFGGGTKVEIKR
modifications: TOP1i linker drug LD1 (structural formula V) linked via sulfhydryl groups of reduced cysteine residues; positions not given
B2: ADC-3 (AbA conjugated to linker drug LD3, structural formula X) (antibody, IgG1, V domains shown)
VH: B1 VH
VL: B1 VL
modifications: TOP1i linker drug LD3 (structural formula VII, maleimide, hydrolyzed) linked via sulfhydryl groups of reduced cysteine residues; positions not given
B3: ADC-2 (AbA conjugated to linker drug LD2, structural formula IX) (antibody, IgG1, V domains shown)
VH: B1 VH
VL: B1 VL
modifications: TOP1i linker drug LD2 (structural formula VI, maleimide, hydrolyzed) linked via sulfhydryl groups of reduced cysteine residues; positions not given

Target: c-Met (human, UniProt P08581 25-1390)
Assay: cell-based or functional assay

c-Met, sequence (P08581 25-1390): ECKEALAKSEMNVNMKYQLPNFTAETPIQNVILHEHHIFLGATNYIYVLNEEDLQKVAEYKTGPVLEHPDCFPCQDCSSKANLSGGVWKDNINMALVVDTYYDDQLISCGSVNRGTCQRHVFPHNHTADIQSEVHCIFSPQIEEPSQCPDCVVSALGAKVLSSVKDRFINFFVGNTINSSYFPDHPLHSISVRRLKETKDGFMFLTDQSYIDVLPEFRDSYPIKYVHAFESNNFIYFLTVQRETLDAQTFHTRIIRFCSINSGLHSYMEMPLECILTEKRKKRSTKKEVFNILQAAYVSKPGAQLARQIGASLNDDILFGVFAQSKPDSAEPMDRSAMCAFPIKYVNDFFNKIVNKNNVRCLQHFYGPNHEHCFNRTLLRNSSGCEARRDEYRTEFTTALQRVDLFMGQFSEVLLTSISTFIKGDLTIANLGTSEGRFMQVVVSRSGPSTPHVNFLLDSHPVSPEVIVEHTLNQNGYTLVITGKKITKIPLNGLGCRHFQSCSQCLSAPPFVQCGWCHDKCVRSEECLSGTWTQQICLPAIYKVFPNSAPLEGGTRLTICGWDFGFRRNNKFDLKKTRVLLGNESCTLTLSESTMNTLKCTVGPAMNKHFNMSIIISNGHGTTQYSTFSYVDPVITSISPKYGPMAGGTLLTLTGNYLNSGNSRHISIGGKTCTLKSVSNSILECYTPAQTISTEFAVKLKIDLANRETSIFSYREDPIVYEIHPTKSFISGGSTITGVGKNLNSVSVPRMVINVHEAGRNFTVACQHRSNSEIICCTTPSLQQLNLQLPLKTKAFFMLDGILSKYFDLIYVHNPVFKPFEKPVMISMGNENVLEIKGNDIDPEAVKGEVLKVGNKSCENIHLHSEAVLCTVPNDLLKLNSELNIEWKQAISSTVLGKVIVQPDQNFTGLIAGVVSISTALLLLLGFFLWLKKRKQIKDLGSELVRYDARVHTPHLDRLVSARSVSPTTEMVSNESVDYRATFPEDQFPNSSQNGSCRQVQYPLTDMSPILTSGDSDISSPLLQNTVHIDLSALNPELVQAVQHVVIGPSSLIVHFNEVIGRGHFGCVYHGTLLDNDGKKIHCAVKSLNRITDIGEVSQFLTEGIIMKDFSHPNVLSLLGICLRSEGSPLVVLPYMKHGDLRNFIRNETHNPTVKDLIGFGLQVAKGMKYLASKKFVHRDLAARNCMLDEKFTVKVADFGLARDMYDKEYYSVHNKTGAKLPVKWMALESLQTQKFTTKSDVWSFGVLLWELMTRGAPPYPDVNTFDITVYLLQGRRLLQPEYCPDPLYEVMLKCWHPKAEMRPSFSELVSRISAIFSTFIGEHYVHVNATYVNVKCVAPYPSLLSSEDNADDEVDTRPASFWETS

| Binder | Cytotoxicity IC50 (nM), Calu-3 cells [nM] | Cytotoxicity IC50 (nM), HCC827 cells [nM] | Cytotoxicity IC50 (nM), HEK-293 cells (not different from control) [nM] | Cytotoxicity IC50 (nM), MIA PaCa-2 cells (not different from control) [nM] | Cytotoxicity IC50 (nM), NCI-H441 cells [nM] | Cytotoxicity IC50 (nM), NCI-H441 cells (second row so labelled) [nM] | Cytotoxicity IC50 (nM), NCI-H1573 cells (estimated due to curve-fitting issues) [nM] | Cytotoxicity IC50 (nM), SNU-5 cells [nM] | Cytotoxicity IC50 (nM), Hs 746T cells [nM] | Cytotoxicity IC50 (nM), NCI-H820 cells [nM] | Cytotoxicity IC50 (nM), NCI-H1573 cells [nM] |
| --- | --- | --- | --- | --- | --- | --- | --- | --- | --- | --- | --- |
| B1 | 20 | 0.85 | > 60 | > 60 | 0.25 | 0.3 | ~1 | 0.19 | – | – | – |
| B2 | – | 0.5 | – | > 60 | – | – | – | – | 0.05 | 0.06 | 1.1 |
| B3 | – | 0.9 | – | > 60 | – | 0.25 | ~1 | – | – | 0.16 | – |
